This note sets out measurements from patent US11447754B2, “In vitro methods of chemical conversion using non-stereospecific glutathione lyases” (WISCONSIN ALUMNI RESEARCH FOUNDATION, priority 2017, dated 2022).

Common to all, as to assay type: biochemical
A short description of data set [1]: Assays to determine activities and stereospecificities of Saro_2872 and Saro_2873. As to the method:
Cell-free protein synthesis. Cell-free protein synthesis was run essentially as previously described (Makino et al. 2014). The Saro_2872 polypeptide contained a His6-tag and a Tev protease recognition site on its N-terminus that were not removed. The Saro_2873 polypeptide was synthesized in its native form. Synthesized polypeptides were not purified from the synthesis reaction mixture; assays for enzymatic activity were performed by adding aliquots directly from the synthesis reaction. Concentrations of the Saro_2872 and Saro_2873 polypeptides in the reaction mixtures were approximated using the intensities of the bands in an SDS-PAGE gel.
0.1 mM racemic (β(S) and β(R)) MPHPV was combined with 5.8 mM glutathione (GSH) in reaction buffer (RB; 25 mM Tris-HCl (pH 8.0) and 25 mM NaCl). […] These 212 μL reactions were incubated at 30° C. for several hours, then analyzed via HPLC.
HPLC analysis. Analysis and quantification of aromatic compounds were performed using an Ultra AQ C18 5 μm column (Restek) attached to a System Gold HPLC (Beckman Coulter) with running buffers and methods described in Example 1. The eluent was analyzed for light absorbance between 191 and 600 nm, and absorbances at 280 nm were used for quantification of aromatic metabolites by comparing peak areas to those of standards.

Data set [2] is described as follows: Kinetics analysis of GS-HPV cleavage (conversion into HPV), β(R)-stereoisomer. As to the method: (§1) Kinetics analysis of GS-HPV cleavage. The Reaction Buffer (RB) consisted of 25 mM Tris-HCl (pH 8.5) and 25 mM NaCl. The β(R)- and β(S)-stereoisomers of GS-HPV were separately generated by incubating racemic MPHPV (0.46 mM) in RB with 5 mM reduced glutathione (GSH) and either 38 μg/mL LigF1 or 36 μg/mL LigE, respectively, for several h. This sample, containing a single GS-HPV stereoisomer, guaiacol, and the unreacted MPHPV stereoisomer, was diluted with RB to achieve the desired concentration of GS-HPV for the time course reaction (0.005, 0.011, 0.022, 0.096, or 0.193 mM). An additional 5 mM GSH (dissolved in RB) was added prior to initiation of each time course. […] Assays were performed at 25° C., and at specified time points, 300 μL of the reaction was removed and combined with 100 μL 1 M HCl (Acros Organics; Geel, Belgium) to stop the reaction before HPLC analysis to quantify HPV formed.
(§2) HPLC analysis. After extracellular aromatics were identified using LC-MS, routine analysis and quantification of aromatics were performed using an Ultra AQ C18 5 μm column (Restek, Bellefonte, Pa.) attached to a System Gold HPLC (Beckman Coulter, Brea, Calif.) with running buffers and chromatography conditions described in FIG. 14. […]

Data set [3] in a line: Kinetics analysis of GS-HPV cleavage (conversion into HPV), β(S)-stereoisomer. The protocol: as §1, §2

B1: BaeA: heterodimeric β-aryl etherase of Saro_2872 (SEQ ID NO:40) and Saro_2873 (SEQ ID NO:42) from Novosphingobium aromaticivorans (protein)
chain 1: MSALLYHGEPNGASLTVLAALAETGLDIECRRIDLLAGERHSLPGIVDPVALDLSIEGEGPVLVIDGEAMTESVFLAQYLDEAAGGVGLQPTDAYARWEMMMWCRQITERLSPAAALLGNLATSQSAIAAIPAEDFAILAARIVSDDLRERWQALNDDAVNAAQVADSETKVAAAVDRCEKQLGDGREWLMGTFSIADLVTYSWLAGMEPLRPAAFADAPLVKAWLARTAARPCVQAALARATISEPLRAWAPGPEINRWG
chain 2: MDEVSLYHWEPNANSGKPMLALMEKGVPFSSHYIDMLQFDQHKPEYLAINPQGTIPAMTHNGQVLTESTAIMEYVNDRFDGPDLMPADAQDRWRVRWWMKFMDQWLGPSFSMIGWSVFVGPMVRQRDPAELAAAIDRIPLPERRTAWRKAINGDFSESEMAESRRRVGLGIAKLEEELGKRPYVGSNQYSLADINIFNSTYSLPISQPDLAGKDRTPNIMRWLKRVYTREAVKKTWAMGKTDLAHRYGLIMAEIEG
modifications: Novosphingobium aromaticivorans
As for B1, in data set [1] (both polypeptides combined, ~24 nM each, 30° C.), the “conversion of racemic MPHPV into GS-HPV and guaiacol” value is reported as “half of the MPHPV was converted”. For the same molecule, the “reaction with β(S)-MPHPV” value in data set [1] (recombinantly generated Saro_2872-Saro_2873 complex) is listed as “did not react”.

B2: NaGSTNu: Nu-class glutathione S-transferase from Novosphingobium aromaticivorans DSM 12444 (Saro_2595), SEQ ID NO:18; non-stereospecific glutathione lyase (protein)
chain: MSSEYVPPKVWKWDKANGGAFASVNRPVAGPTSERELPVGKHPFQVYSLGTPNGQKATIMLEELLQLGFSEAEYDAWLIKIFEGDQFTSGFVDINPNSKIPAMVDRSGPEPFRVFESGAILMHLAEKFGVFLPTSGPARAECLSWLFWQVGSAPFIGGGFGHFYNYAPIKIEYAIDRYAMETKRLFDVANRRLAESRYLAGDEYTIADLATYTWFGNIYRGEAYGEAATFLSMHEYEHVGRWVGEIDARPGVLRGRLVNSSKGLAERHDASDFDALPPESLQAIVKGF
modifications: Novosphingobium aromaticivorans
notes: non-stereospecific glutathione lyase
For B2, the “KM with β(R)-GS-HPV, fold higher than with β(S)-GS-HPV” value in data set [2] is reported as approximately 5 fold. The “kcat/KM with the β(S)-isomer, fold higher than with the β(R)-isomer” value in data set [3] is recorded as approximately 4 fold.

B3: SYK6GSTNu: Nu-class GST from Sphingobium sp. SYK-6 encoded by SLG_04120, SEQ ID NO:22 (protein)
chain: MADSDPSMNQPTGYVPPKVWTWDKENGGQFSNINAPTAGARQDVTLPVGEHPIQLYSLGTPNGQKVTIMLEELLAAGFDAEYDAWLIKIYTGEQFGSDFVAINPNSKIPAMMDHGLDPPLRLFESGSMLVYLAEKFGAFLPTEIRKRTETFNWLMWQMGSAPFVGGGFGHFYAYAPFKIEYAIDRYAMETKRQLDVLDKNLADREFMIGDEITIADFAIFPWYGSIMRGGYNAQEFLSTHEYRNVDRWVTQLSERTGVKRGLLVNSAGRPGGGIAERHSAADLDASIKAAEQEAAKTEA
modifications: Sphingobium sp. SYK-6
Take B3: the “kcat/KM with the β(S)-isomer, fold higher than with the β(R)-isomer” value in data set [3] is on record as approximately 10 fold.
